Values belong to the substance of their own block, whether it stands above or below them.
Experiments:
[1] = molecular target: full-length CD20 molecule (human) (UniProt P11836); assay: ELISA, full-length CD20 coated at 1 µg/mL in PBS, detection goat anti-hu F(ab')2 HRP
[2] = molecular target: full-length CD20 molecule (human) (UniProt P11836); assay: ELISA, full-length CD20 coated at 1 µg/mL in PBS, detection sheep anti-hu IgG HRP (monkey adsorbed)
[3] = molecular target: full-length CD20 molecule (human) (UniProt P11836); assay: ELISA, full-length CD20 coated at 5 µg/mL in PBS, detection sheep anti-hu IgG HRP (monkey adsorbed)
[4] = molecular target: full-length CD20 molecule (human) (UniProt P11836); assay: ELISA, full-length CD20 coated at 5 µg/mL in PBS, detection goat anti-hu F(ab')2 HRP
[5] = molecular target: T1, biotinylated CD20 35-mer (streptavidin plate ELISA; mono- or bis-biotin form not stated); assay: ELISA, streptavidin plate with CD20 35-mer at 10 µg/ml, 1 wash cycle between steps, goat anti-human IgG (H+L) HRP detection
T1 sequence (peptide, biotinylated (mono or bis not stated); C-terminal amide; disulfide-cyclized): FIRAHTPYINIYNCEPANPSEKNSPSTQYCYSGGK

[6] = molecular target: T2, disulfide-cyclized mono-biotin CD20 35-mer; assay: SPR Biacore 3000, method 1: Mono-CD20-35mer on streptavidin chip at 95 RU, 2H7-IgG injected, 1:1 model, apparent KD
T2 sequence (peptide, N-terminal biotin; C-terminal amide; disulfide-cyclized): T1 sequence (peptide, biotinylated (mono or bis not stated); C-terminal amide; disulfide-cyclized)

[7] = molecular target: T1, biotinylated CD20 35-mer (streptavidin plate ELISA; mono- or bis-biotin form not stated); assay: ELISA, streptavidin plate with CD20 35-mer at 20 µg/ml, 2 wash cycles between steps, goat anti-human IgG (H+L) HRP detection
[8] = molecular target: T1, biotinylated CD20 35-mer (streptavidin plate ELISA; mono- or bis-biotin form not stated); assay: ELISA, streptavidin plate with CD20 35-mer at 10 µg/ml, 2 wash cycles between steps, goat anti-human IgG (H+L) HRP detection
[9] = molecular target: T1, biotinylated CD20 35-mer (streptavidin plate ELISA; mono- or bis-biotin form not stated); assay: ELISA, streptavidin plate with CD20 35-mer at 2 µg/ml, 1 wash cycle between steps, goat anti-human IgG (H+L) HRP detection
[10] = molecular target: T1, biotinylated CD20 35-mer (streptavidin plate ELISA; mono- or bis-biotin form not stated); assay: ELISA, streptavidin plate with CD20 35-mer at 10 µg/ml, 3 wash cycles between steps, goat anti-human IgG (H+L) HRP detection
[11] = molecular target: Bis-biotin disulfide-cyclized CD20 35-mer; assay: SPR Biacore 3000, method 2: Bis-CD20-35mer on streptavidin chip at 685 RU, 2H7-IgG injected, bivalent analyte model, apparent KD
[12] = molecular target: T1, biotinylated CD20 35-mer (streptavidin plate ELISA; mono- or bis-biotin form not stated); assay: ELISA, streptavidin plate with CD20 35-mer at 20 µg/ml, 1 wash cycle between steps, goat anti-human IgG (H+L) HRP detection
[13] = molecular target: disulfide-cyclized Bis-biotin CD20 51-mer; assay: SPR Biacore 3000, method 2: Bis-CD20-51mer on streptavidin chip at 1037 RU, 2H7-IgG injected, bivalent analyte model, apparent KD
disulfide-cyclized Bis-biotin CD20 51-mer, sequence (peptide, as listed by the source): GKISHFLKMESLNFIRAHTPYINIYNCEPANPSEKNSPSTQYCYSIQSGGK

rhuMAb2H7 [14] = assay: bridging ELISA, sheep anti-human IgG capture and detection; D1 + 0.2% donkey IgG in blocking, sample and detection buffers
rhuMAb2H7 [15] = assay: direct sandwich ELISA, sheep anti-human IgG capture, goat anti-human IgG (H+L) HRP detection diluted in Buffer A + 0.35 M NaCl (A1)
rhuMAb2H7 [16] = assay: direct sandwich ELISA, sheep anti-human IgG capture, goat anti-human IgG HRP detection, buffer A in all steps, n = 8
rhuMAb2H7 [17] = assay: direct sandwich ELISA, sheep anti-human IgG capture, goat anti-human IgG HRP detection, buffer D (with BGG) in all steps, n = 8
rhuMAb2H7 [18] = assay: direct sandwich ELISA, sheep anti-human IgG capture, goat anti-human IgG HRP detection, buffer E (HEPES) in all steps, n = 8
rhuMAb2H7 [19] = assay: bridging ELISA, sheep anti-human IgG capture and detection; D1 + 0.2% rabbit IgG in blocking, sample and detection buffers
rhuMAb2H7 [20] = assay: direct sandwich ELISA, sheep anti-human IgG capture, goat anti-human IgG (H+L) HRP detection diluted in Buffer A + 5 mM EDTA (A3)
rhuMAb2H7 [21] = assay: bridging ELISA, sheep anti-human IgG capture and detection; D1 + 0.2% mouse IgG in blocking, sample and detection buffers
rhuMAb2H7 [22] = assay: direct sandwich ELISA, sheep anti-human IgG capture, goat anti-human IgG (H+L) HRP detection diluted in Buffer A
rhuMAb2H7 [23] = assay: direct sandwich ELISA, sheep anti-human IgG capture, goat anti-human IgG (H+L) HRP detection diluted in Buffer D - BGG (D1)
rhuMAb2H7 [24] = assay: direct sandwich ELISA, sheep anti-human IgG capture, goat anti-human IgG HRP detection, buffer B in all steps, n = 8
rhuMAb2H7 [25] = assay: direct sandwich ELISA, sheep anti-human IgG capture, goat anti-human IgG HRP detection, buffer C (with BGG) in all steps, n = 8
rhuMAb2H7 [26] = assay: direct sandwich ELISA, sheep anti-human IgG capture, goat anti-human IgG (H+L) HRP detection diluted in Buffer A + 0.2% BGG (A2)
rhuMAb2H7 [27] = assay: bridging ELISA, sheep anti-human IgG capture and detection; blocking D, sample diluent D, detection diluent A
rhuMAb2H7 [28] = assay: direct sandwich ELISA, sheep anti-human IgG capture, goat anti-human IgG (H+L) HRP detection diluted in Buffer D
rhuMAb2H7 [29] = assay: bridging ELISA, sheep anti-human IgG capture and detection; blocking D, sample diluent D1, detection diluent D1
rhuMAb2H7 [30] = assay: bridging ELISA, sheep anti-human IgG capture and detection; blocking D1 + 0.2% fish gelatin, other diluents not given
rhuMAb2H7 [31] = assay: direct sandwich ELISA, sheep anti-human IgG capture, goat anti-human IgG (H+L) HRP detection diluted in Buffer A + 0.25% CHAPS (A4)
rhuMAb2H7 [32] = assay: bridging ELISA, sheep anti-human IgG capture and detection; blocking D, sample diluent D, detection diluent D

full-length CD20 molecule (human), sequence (P11836 whole entry): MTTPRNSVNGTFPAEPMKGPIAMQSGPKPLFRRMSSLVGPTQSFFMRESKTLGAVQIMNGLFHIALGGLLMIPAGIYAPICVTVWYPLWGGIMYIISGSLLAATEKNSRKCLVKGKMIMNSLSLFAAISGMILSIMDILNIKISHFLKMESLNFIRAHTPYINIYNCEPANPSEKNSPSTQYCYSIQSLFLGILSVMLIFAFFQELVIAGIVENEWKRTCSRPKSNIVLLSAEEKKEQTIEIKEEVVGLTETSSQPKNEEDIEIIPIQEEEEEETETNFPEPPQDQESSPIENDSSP
rhuMAb2H7 (antibody), sequence (VH): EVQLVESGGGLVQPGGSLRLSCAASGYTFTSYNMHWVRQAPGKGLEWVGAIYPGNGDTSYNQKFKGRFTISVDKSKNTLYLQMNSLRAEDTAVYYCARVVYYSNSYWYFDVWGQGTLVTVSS
rhuMAb2H7 (antibody), sequence (VL): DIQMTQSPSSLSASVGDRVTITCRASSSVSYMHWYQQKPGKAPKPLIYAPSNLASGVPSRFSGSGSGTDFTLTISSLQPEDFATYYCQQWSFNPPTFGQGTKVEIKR

signal of 247 ng/ml of Rituxan (O.D.450 nm) [1]: 0.065 O.D. | signal of 247 ng/ml of Rituxan (O.D.450 nm) [2]: 0.012 O.D. | signal of 247 ng/ml of Rituxan (O.D.450 nm) [3]: 0.023 O.D. | signal of 247 ng/ml of Rituxan (O.D.450 nm) [4]: 0.166 O.D.
Substance: Rituxan (antibody)

O.D. (450-650 nm) for 160 µg/ml of rhuMAb2H7 [5]: 0.063 O.D. | Kd [6]: 41.7 µM | O.D. (450-650 nm) for 160 µg/ml of rhuMAb2H7 [7]: 0.01 O.D. | O.D. (450-650 nm) for 160 µg/ml of rhuMAb2H7 [8]: 0.009 O.D. | O.D. (450-650 nm) for 160 µg/ml of rhuMAb2H7 [9]: 0.063 O.D. | O.D. (450-650 nm) for 160 µg/ml of rhuMAb2H7 [10]: 0.009 O.D. | Kd [11]: 500 nM | O.D. (450-650 nm) for 160 µg/ml of rhuMAb2H7 [12]: 0.055 O.D. | Kd [13]: 110 nM
Substance: rhuMAb2H7 (antibody)

Signal of 2H7 at 240 ng/ml (rhuMAb2H7 [14]): 0.38 O.D. | 240 ng/ml 2H7 (O.D. 450-650 nm) (rhuMAb2H7 [15]): 2 O.D. | Signal, O.D. 450-650 nm at 240 ng/ml rhuMAb2H7 (rhuMAb2H7 [16]): 2.04 O.D. | Signal, O.D. 450-650 nm at 240 ng/ml rhuMAb2H7 (rhuMAb2H7 [17]): 1.72 O.D. | Signal, O.D. 450-650 nm at 240 ng/ml rhuMAb2H7 (rhuMAb2H7 [18]): 2.1 O.D. | Signal of 2H7 at 240 ng/ml (rhuMAb2H7 [19]): 0.06 O.D. | 240 ng/ml 2H7 (O.D. 450-650 nm) (rhuMAb2H7 [20]): 2.13 O.D. | Signal of 2H7 at 240 ng/ml (rhuMAb2H7 [21]): 0.09 O.D. | 240 ng/ml 2H7 (O.D. 450-650 nm) (rhuMAb2H7 [22]): 2.23 O.D. | 240 ng/ml 2H7 (O.D. 450-650 nm) (rhuMAb2H7 [23]): 1.65 O.D. | Signal, O.D. 450-650 nm at 240 ng/ml rhuMAb2H7 (rhuMAb2H7 [24]): 1.91 O.D. | Signal, O.D. 450-650 nm at 240 ng/ml rhuMAb2H7 (rhuMAb2H7 [25]): 1.88 O.D. | 240 ng/ml 2H7 (O.D. 450-650 nm) (rhuMAb2H7 [26]): 2.28 O.D. | Signal of 256 ng/ml of 2H7 (rhuMAb2H7 [27]): 1.6 O.D. | 240 ng/ml 2H7 (O.D. 450-650 nm) (rhuMAb2H7 [28]): 0.962 O.D. | Signal of 2H7 at 240 ng/ml (rhuMAb2H7 [29]): 1.04 O.D. | Signal of 2H7 at 240 ng/ml (rhuMAb2H7 [30]): 0.34 O.D. | 240 ng/ml 2H7 (O.D. 450-650 nm) (rhuMAb2H7 [31]): 2.15 O.D. | Signal of 2H7 at 240 ng/ml (rhuMAb2H7 [32]): 1.15 O.D.
Substance: sheep anti-human IgG heavy (H) and light (L) chain, cynomolgus monkey serum adsorbed (Cat #CUS1684, The Binding Site) (antibody)

Reference: patent publication US20060172357A1, “Detecting human antibodies in non-human serum” (Genentech, priority 2004, published 2006)
